US20230094463A1, “ANTIBODIES THAT DISRUPT THE INTERACTION OF GAL3 AND INSULIN RECEPTOR OR INTEGRINS AND METHODS OF USE THEREOF” (TrueBinding, Inc., priority 2019, published 2023)

Legend:
[1] = system: high-fat diet fed diabetic C57BL6J mice; assay: High-fat diet fed mouse model of type II diabetes; format: in vivo; conditions: HFD-fed mice; for liver steatosis (H&E stained liver sections): 10 mg/kg
From the text: To evaluate whether Gal3-INSR blockade by Gal3-targeted antibodies functionally impacted diabetes biology, a mouse model of type II diabetes was employed. Male C57BL6J mice were purchased from Jackson Lab and fed with high fat diet (HFD, 60% kcal from fat, Research Diet, Catalog #12492i) starting from 7-week old for 8 weeks, 10 or 16 weeks. Age-matched male C57BL6J mice fed with standard chow diet were used as control mice. […] Mice were fed with standard chow diet or HFD ad libitum except when fasted as indicated in the experiments. Glucose tolerance test (GTT) and insulin tolerance test (ITT) were done at 15 weeks and 16 weeks old (8 weeks and 9 weeks after HFD), respectively, to confirm the insulin resistant and glucose intolerant phenotype. For GTT, mice were fasted for 6 hours by transferring mice to clean cage with no food or faeces but with drinking water and then injected with 2 g/kg glucose (Sigma) and blood was drawn to measure glucose levels at 0, 15, 30, 60, 90, and 120 minutes after glucose injection. For ITT, mice were fasted for 6 hours, and then injected with 0.75 IU/kg body weight of Humalin-R (Eli Lilly) intraperitoneally. Blood from the tail was measured for glucose content using HemoCue Glucose 201 Analyzer at 0, 15, 30, 45, 60 minutes. Based on area under the curve (AUC) from ITT, HFD fed mice were randomized into two groups: human IgG4 isotype group and IMT001-4 treated group. At 17 weeks of age, mice were given antibody treatments by intraperitoneal injection twice a week for 5 doses before ITT and GTT were done at 19 weeks old and 20 weeks old. Human IgG4 isotype and IMT001-4 were dosed at 10 mg/kg with 100 μl/mouse and BM was dosed at […] with 100 μl/mouse. Treatments continued until the mice were sacked at 21 weeks old. The mice body weight was monitored one week after the mice arrived at the facility. Body weight was measured once a week using a balance. Mouse blood was collected using cardiac puncture. Liver, gastrocnemius muscle, and posterior subcutaneous white adipose fat were collected and weighed.
To further evaluate the ability of IMT001-4 to impact the pathological sequalae of diabetes, liver sections from animals treated as in FIGS. 3-5 were examined for signs of fat accumulation, e.g., steatosis. Briefly, liver specimens were fixed in 4% paraformaldehyde for 24 hours, placed in 70% EtOH for 3 days, embedded into paraffin and 10 μm sections were cut and mounted to glass slides and stained with hematoxylin and eosin and visualized on a Revolve microscope at 40× magnification. Images were evaluated by ImageJ to quantitate the extent of steatosis.
To further characterize the liver disease observed in histological samples, serum markers of liver dysfunction were evaluated in animals treated as above […]. Briefly, mouse plasma samples were obtained from whole blood sample in lithium heparin collection tubes. 100 μl of serum was dispensed into the rotor of a VetScan VS2 Blood Chemistry Analyzer (Abaxis) through the sample port. ALT levels were determined as per the manufacturer's specification. […] Accordingly, the Gal3-targeted Gal3-INSR blocking antibody, IMT001-4, has utility in reducing serum liver enzymes.

[2] = system: DSS-induced IBD C57BL/6J mice; assay: DSS mouse model of chronic inflammatory bowel disease; format: in vivo; conditions: 3% DSS mice, 10 mg/kg or 1 mg/kg
Procedure: A mouse model of chronic inflammatory bowel disease was implemented to study the effect of Gal-3 antibodies. […] Mice were allowed to rest for one week before initiating the treatment.
Mice were randomized into the four treatment groups: no dextran sulfate sodium salt (DSS), 3% DSS in water+PBS, 3% DSS+mTB001 (10 mg/kg), 3% DSS+mTB001 (1 mg/kg). DSS water mixture was given for five consecutive days followed by seven days of normal water for a total of three DSS cycles and two normal water cycles. Body weight, stool consistency, gross bleeding score, and Hemoccult score (Fisher, SK-61130) were monitored daily. At necropsy, blood, colon, jejunum, ileum, duodenum, and spleen were preserved and flash frozen. Plasma Inflammatory cytokines were measured using Multi-spot Assay Systems (MSD) Proinflammatory Panel 1 (mouse) kit (MSD, K15048D). RT-qPCR was performed on frozen colon samples. Briefly, the colon tissue was disrupted using Qiazol lysis buffer (Qiagen, 79306) and the Qiagen Tissue Lyser II (Qiagen, 85300). RNA was extracted using RNeasy mini kit (Qiagen, 74104). cDNA was synthesized with iScript Reverse Transcription Supermix (BioRad, 1708841) at BioRad C1000 touch thermal cycler (BioRad, 1851138). […]

[3] = system: HFD-fed Db/Db (Bks-Db) mice; assay: HFD-fed Db/Db mouse model of advanced type II diabetes
From the text: In order to investigate the effect of therapeutic anti-GAL-3 antibodies on a severe case of type II diabetes, a mouse model using High Fat Diet (HFD)-fed Db/Db mice was implemented. Four-weeks-old male Bks-Db mice (000642) obtained from Jackson lab were fed with 60% kcal HFD (Research Diet, 12492i) for eight weeks. Control animals (male C57BL6/J (000662), Jackson lab) were fed normal chow diet. […] Animals were randomized based on the body composition measured by employing EchoMRI-500™ (EchoMRI). […] Wild type animals were used as a control (Healthy) group. The animals were dosed for twelve weeks. […] The fasting blood glucose was measured as described in Example 15. Briefly, the mice were fasted for 4-6 hours in clean cages with water and no food. Blood from the tail was diluted 2.5 times before using HemoCue Glucose 201 Analyzer and cuvettes (Mercedes Scientific 110706) to measure the blood glucose level.

[4] = 10 mg/kg i.p. twice a week, vs isotype control

B1: TB001: Gal3-targeted Gal3-INSR blocking anti-Gal3 antibody; IMT001-4 used with human IgG4 isotype control (antibody, V domains shown)
VH: QVQLVQSGSELKKPGASVKVSCKASGYTFTNYGMNWVRQAPGQGLKWMGWINTNTGEPTYVEEFTGRFVFSLETSVSTAYLQISSLKAEDTAVYFCAPYDNFFAYWGQGTTVTVSS
VL: DIVLTQSPLSLPVTPGEPASISCRSSKSLLYKDGKTYLNWFLQKPGQSPQLLIYLMSTHASGVPDRFSGSGSGTDFTLKISRVEAEDVGVYYCQQLVDYPLTFGGGTKLEIK
- weight gain ([1]; 10 mg/kg i.p. twice a week, 19 day study): did not gain any appreciable weight
- liver steatosis (H&E stained liver sections) ([1]; 10 mg/kg i.p. twice a week): negligible levels of steatosis
- liver steatosis (H&E stained liver sections) ([1]; 10 mg/kg i.p. twice a week, listed as IMT001-4 (TB001)): absence thereof
- glucose reduction in response to insulin challenge (insulin tolerance test) [1, 4]: glucose clearance indistinguishable from non-diabetic mice fed a normal diet
- response to glucose challenge (glucose tolerance test) [1, 4]: cleared glucose significantly more rapidly
- serum liver enzyme ALT levels ([1]; relative to HFD-fed isotype-control treated mice): significantly decreased
- liver steatosis by image quantification (ImageJ) ([1]; relative to isotype-control treated animals): complete reversion of disease state
- DSS-induced reduction in the colon length [2]: restored
- DSS-induced inflammation by circulating levels of IFN-gamma ([2]; plasma): reduced DSS-induced inflammation
- change in levels of fasting blood glucose ([3]; compared to PBS-treated groups): lack of change
- survival ([3]; dosed once weekly for twelve weeks): significantly prolonged survival
